Patent US20200216522A1 (DENALI THERAPEUTICS, published 2020)

Experiments:
Assay in all cases: peptide array
Peptide_006 = target: T1, Peptide_006 (human)
T1 peptide: QGGYTMHQDQEGDTD
Procedure: (§1) Chimeric IgG antibodies were diluted to a concentration of 5 μg/mL in 3% bovine serum albumin in Tris-buffered saline (10 mM Tris, pH 7.5, 150 mM NaCl) supplemented with 0.05% Tween®20 (3% BSA-TBST). Diluted antibodies were allowed to bind to peptides printed onto slides for 2 hours at room temperature as described in the PepStar™ user manual (JPT Technologies). Following extensive washing (5×5 minutes with TBST), slides were incubated with secondary antibodies goat anti-human IgG, Alexa Fluor 568 conjugate, 1 μg/mL in 3% BSA-TBST) for 1 hour at room temperature. After extensive washing, (5×5 minutes with TBST, then 5×5 minutes with ultrapure water), slides were dried overnight and imaged using an Opera Phenix™ system in the 568 nm channel. Images were aligned to peptide array definition files using Galviewer software obtained from JPT Technologies and ImageJ software with control human IgG serving as landmarks.
(§2) Full-length human Tau (encoded by the microtubule-associated protein Tau isoform 2 gene (MAPT), amino acid sequence NCBI Reference Sequence No. NP_005901.2, SEQ ID NO: 1, variant designation “2N4R”) was divided into 15 amino acid peptides, offset by 5 amino acids (overlapping by 10 amino acids). Peptides were synthesized and covalently attached to silica slides in triplicate with a spot size of 0.5 mm (obtained from JPT Technologies, Berlin, Germany). Antibodies muIgG were diluted to a concentration of 30 μg/mL in 3% bovine serum albumin in Tris-buffered saline (10 mM Tris, pH 7.5, 150 mM NaCl) supplemented with 0.05% Tween® 20 (3% BSA-TBST). Diluted antibodies were allowed to bind to peptides printed onto slides for 2 hours at room temperature as described in the Pepstar™ user manual (JPT Technologies). Following extensive washing (5×5 min TBST), slides were incubated with secondary antibodies (donkey anti-mouse IgG, Alexafluor 647 conjugate, 5 μg/mL in 3% BSA-TBST) for 1 hour at room temperature. After extensive washing, (5×5 minutes TBST, 5×5 minutes ultrapure water), slides were dried under a stream of nitrogen and imaged on the Opera Phenix in the 647 nm channel. Images were aligned to peptide array definition file using Galviewer software obtained from JPT Technologies and ImageJ software with control mouse IgG serving as landmarks.

Peptide_004 = target: T2, Peptide_004 (human)
T2 peptide: GTYGLGDRKDQGGYT
Procedure: as §1, §2

Peptide_003 = target: T3, Peptide_003 (human)
T3 peptide: MEDHAGTYGLGDRKD
Procedure: as §1, §2

Peptide_002 = target: T4, Peptide_002 (human)
T4 peptide: QEFEVMEDHAGTYGL
Procedure: as §1, §2

Peptide_001 = target: T5, Peptide_001 (human)
T5 peptide: MAEPRQEFEVMEDHA
Procedure: as §1, §2

Peptide_024 = target: T6, Peptide_024 (human)
T6 peptide: DEAAGHVTQARMVSK
Procedure: as §1, §2

Peptide_022 = target: T7, Peptide_022 (human)
T7 peptide: AGIGDTPSLEDEAAG
Procedure: as §1, §2

Peptide_021 = target: T8, Peptide_021 (human)
T8 peptide: TTAEEAGIGDTPSLE
Procedure: as §1, §2

Peptide_020 = target: T9, Peptide_020 (human)
T9 peptide: EIPEGTTAEEAGIGD
Procedure: as §1, §2

Peptide_019 = target: T10, Peptide_019 (human)
T10 peptide: AQPHTEIPEGTTAEE
Procedure: as §1, §2

Peptide_018 = target: T11, Peptide_018 (human)
T11 peptide: GKQAAAQPHTEIPEG
Procedure: as §1, §2

Peptide_017 = target: T12, Peptide_017 (human)
T12 peptide: DEGAPGKQAAAQPHT
Procedure: as §1, §2

Peptide_033 = target: T13, Peptide_033 (human)
T13 peptide: GQKGQANATRIPAKT
Procedure: as §1, §2

Peptide_032 = target: T14, Peptide_032 (human)
T14 peptide: GAAPPGQKGQANATR
Procedure: as §1, §2

Peptide_030 = target: T15, Peptide_030 (human)
T15 peptide: DGKTKIATPRGAAPP
Procedure: as §1, §2

Peptide_027 = target: T16, Peptide_027 (human)
T16 peptide: SKDGTGSDDKKAKGA
Procedure: as §1, §2

Peptide_025 = target: T17, Peptide_025 (human)
T17 peptide: HVTQARMVSKSKDGT
Procedure: as §1, §2

process-control peptide = target: T18, process-control peptide
T18 construct: array control, not a Tau peptide
T18 peptide: GGSGGGSDYKDDDDK
Procedure: as §1, §2

Peptide_046 = target: T19, Peptide_046 (human)
T19 peptide: VAVVRTPPKSPSSAK
Procedure: as §1, §2

Peptide_044 = target: T20, Peptide_044 (human)
T20 peptide: PTPPTREPKKVAVVR
Procedure: as §1, §2

Peptide_043 = target: T21, Peptide_043 (human)
T21 peptide: RTPSLPTPPTREPKK
Procedure: as §1, §2

Peptide_039 = target: T22, Peptide_039 (human)
T22 peptide: SGDRSGYSSPGSPGT
Procedure: as §1, §2

Peptide_038 = target: T23, Peptide_038 (human)
T23 peptide: GEPPKSGDRSGYSSP
Procedure: as §1, §2

Peptide_056 = target: T24, Peptide_056 (human)
T24 peptide: QIINKKLDLSNVQSK
Procedure: as §1, §2

Peptide_055 = target: T25, Peptide_055 (human)
T25 peptide: GGGKVQIINKKLDLS
Procedure: as §1, §2

Peptide_050 = target: T26, Peptide_050 (human)
T26 peptide: APVPMPDLKNVKSKI
Procedure: as §1, §2

Peptide_068 = target: T27, Peptide_068 (human)
T27 peptide: QVEVKSEKLDFKDRV
Procedure: as §1, §2

Peptide_064 = target: T28, Peptide_064 (human)
T28 peptide: SKVTSKCGSLGNIHH
Procedure: as §1, §2

Peptide_063 = target: T29, Peptide_063 (human)
T29 peptide: KPVDLSKVTSKCGSL
Procedure: as §1, §2

Peptide_079 = target: T30, Peptide_079 (human)
T30 peptide: EIVYKSPVVSGDTSP
Procedure: as §1, §2

Peptide_077 = target: T31, Peptide_077 (human)
T31 peptide: NAKAKTDHGAEIVYK
Procedure: as §1, §2

Peptide_076 = target: T32, Peptide_076 (human)
T32 peptide: LTFRENAKAKTDHGA
Procedure: as §1, §2

Peptide_075 = target: T33, Peptide_075 (human)
T33 peptide: IETHKLTFRENAKAK
Procedure: as §1, §2

Peptide_074 = target: T34, Peptide_074 (human)
T34 peptide: GGNKKIETHKLTFRE
Procedure: as §1, §2

Peptide_085 = target: T35, Peptide_085 (human)
T35 peptide: DSPQLATLADEVSAS
Procedure: as §1, §2

Measured: binding result

B1: chimeric IgG clone 1D10 (antibody, V domains shown)
VH: EVQLQQSGAELVRPGASVKLSCTASGFNIKDSLMHWMKQRPEQGLEWIGWIDPEDGETKYAPKFQDKATLTADTSSNAAYLQLSSLTSEDTAIYYCVRGDWDGGYWGQGTTLTVSS
VL: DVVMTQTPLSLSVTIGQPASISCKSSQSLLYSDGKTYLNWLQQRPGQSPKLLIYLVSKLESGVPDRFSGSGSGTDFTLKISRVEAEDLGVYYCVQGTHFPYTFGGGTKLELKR
notes: mouse-human chimeric IgG from HEK293
no binding (tested: 5 ug/mL): all assays above
